Test results published in the supplement of paper PMC10724198.
± gives the standard deviation of the averaged measurements.

tested on: Saccharomyces cerevisiae; assay: protein stability index of tFT-peptide fusion (C-terminal peptide) (PSI (0-1 scale)); higher = more stable (slower turnover); conditions: genetic background: wild type; temperature: 30 C
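Further: PSI is a weighted mean of sequencing reads over stability bins, variants kept only with over 10 reads, mCherry proximal and sfGFP distal, peptide attached via GGGS linker.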

Row | Sequence | protein stability index
1 | QVFKHVKHIEFD | 0.725 ± 0.062
2 | QVHPKRPLNQSL | 0.735 ± 0.054
3 | QVSLLVKKSKLR | 0.679 ± 0.049
4 | QVYGEWASAGWG | 0.718 ± 0.04
5 | QWLGRDLKSREL | 0.691 ± 0.064
6 | RACKKGTKRIRI | 0.613 ± 0.06
7 | RAGHREIARQKG | 0.6307 ± 0.0013
8 | RAGPPPPPSITL | 0.83 ± 0.085
9 | RAGRVRAPGRWP | 0.728 ± 0.017
10 | RAIRWFGGRLVG | 0.7228 ± 0.0049
11 | RAKGTGRRLGVA | 0.676 ± 0.013
12 | RALVIKREALQI | 0.59 ± 0.03
13 | RASGNHVNQVDC | 0.719 ± 0.036
14 | RASGSFPSLVFS | 0.734 ± 0.12
15 | RASWVRTLMSCQ | 0.58161 ± 0.00022
16 | RATERIVNIKGK | 0.63277 ± 0.00036
17 | RATLPPSAASLP | 0.677 ± 0.1
18 | RATSCAAPLLAR | 0.6009 ± 0.0047
19 | RATTDGGRGGRR | 0.696 ± 0.037
20 | RAVAGGPMPGSG | 0.732 ± 0.044
21 | RCAIMGRGGIVT | 0.686 ± 0.018
22 | RCGVGGAVSFWW | 0.72 ± 0.05
23 | RCLGVCRAESLP | 0.682 ± 0.034

Row | Sequence | protein stability index
24 | RCQYRRTMSITI | 0.635 ± 0.034
25 | RCRNVGAVATPR | 0.643 ± 0.1
26 | RCSDILGKGKHV | 0.661 ± 0.0084
27 | RDAGPSKERNRR | 0.675 ± 0.039
28 | RDARTWTVSHGT | 0.703 ± 0.033
29 | RDELSYIDICLT | 0.691 ± 0.025
30 | RDFLLLASHLRF | 0.764 ± 0.056
31 | RDGYMVKVYGVK | 0.707 ± 0.1
32 | RDLEAVRSEDHR | 0.6766 ± 0.0047
33 | RDLLYHNCRNMI | 0.695 ± 0.027
34 | RDLYHPFQSHQS | 0.705 ± 0.019
35 | RDPSVVGLGRPP | 0.604 ± 0.0076
36 | RDPTTYGRSKEN | 0.655 ± 0.023
37 | RDQPPPLPFTRP | 0.712 ± 0.1
38 | RDRGWSRGRQVH | 0.662 ± 0.015
39 | RDSKDMTWISTS | 0.6755 ± 0.0024
40 | RDSVLSFSALQV | 0.681 ± 0.0097
41 | REIVLQTSAAYN | 0.613 ± 0.037
42 | REKRSVTQSTTD | 0.796 ± 0.12
43 | REKSLKINKKKN | 0.676 ± 0.0068
44 | RERLSRGGEGFE | 0.693 ± 0.021
45 | RERRGPTDLKRH | 0.712 ± 0.041
46 | RFARQSNTFSQS | 0.659 ± 0.013

Row | Sequence | protein stability index
47 | RFASGAVLSWAC | 0.695 ± 0.015
48 | RFEISNLVFIPR | 0.686 ± 0.033
49 | RFFGAVSFQFCL | 0.699 ± 0.011
50 | RFFYGGRRTQQT | 0.753 ± 0.058
51 | RFLAHLVRPFCG | 0.722 ± 0.039
52 | RFNGWRDKEAME | 0.707 ± 0.036
53 | RFNLLLSATEDR | 0.716 ± 0.07
54 | RFPFFLLPPLSS | 0.65 ± 0.091
55 | RFPLLAPPRPLP | 0.7318 ± 0.0043
56 | RFPLLPLLRPPP | 0.6494 ± 0.0031
57 | RFPPPPPPPPLL | 0.718 ± 0.078
58 | RFSLGLIFLPSL | 0.68 ± 0.044
59 | RFSYFPALFFPS | 0.678 ± 0.043
60 | RFVDLASFLTFR | 0.587 ± 0.031
61 | RGAEACGGVPGQ | 0.671 ± 0.024
62 | RGAKKMNHRGRS | 0.675 ± 0.052
63 | RGDHPAAGFPCG | 0.686 ± 0.033
64 | RGFVVGGGGWLG | 0.706 ± 0.051
65 | RGGAGGRKVSVG | 0.651 ± 0.05
66 | RGGAGGRLGCGG | 0.71 ± 0.071
67 | RGGGFIGSFFMG | 0.751 ± 0.15
68 | RGGGGAWAGGVA | 0.734 ± 0.019
69 | RGGGGGEWGEQR | 0.702 ± 0.046

Row | Sequence | protein stability index
70 | RGGGGGSVSFWW | 0.676 ± 0.071
71 | RGGGGPTVEDRR | 0.681 ± 0.007
72 | RGGGGRGGSEGS | 0.686 ± 0.017
73 | RGGPPPPPSITL | 0.851 ± 0.12
74 | RGGSVGRGRLCL | 0.643 ± 0.014
75 | RGHLPPIGLTRH | 0.675 ± 0.013
76 | RGILGAGGAGRG | 0.744 ± 0.079
77 | RGKATREAGKKR | 0.7916 ± 0.0028
78 | RGLLLSRRWFSP | 0.641 ± 0.099
79 | RGPPGVPGSDML | 0.673 ± 0.023
80 | RGPSGARRQPGL | 0.6658 ± 0.0044
81 | RGRAGPVVRELT | 0.646 ± 0.097
82 | RGRGEVRGVGGG | 0.698 ± 0.067
83 | RGRRGAGTGRGP | 0.657 ± 0.019
84 | RGRSVEGSRGGW | 0.6781 ± 0.0048
85 | RGRWGGGRVVRG | 0.6944 ± 0.0062
86 | RGSGCAFLFAWF | 0.654 ± 0.092
87 | RGSPDRPGGPLP | 0.7322 ± 0.0028
88 | RGTGPPGALREE | 0.653 ± 0.046
89 | RGVCVGGGCWLV | 0.624 ± 0.034
90 | RGWGGGRVAREC | 0.657 ± 0.026
91 | RGWWVLCGGGGG | 0.57 ± 0.044
92 | RGWWVRGGVLWC | 0.677 ± 0.048

Row | Sequence | protein stability index
93 | RGYSGSLSVVIY | 0.657 ± 0.057
94 | RGYVNVWTRLGN | 0.717 ± 0.043
95 | RHENKKDKIRME | 0.701 ± 0.11
96 | RHKLYPRIVLNR | 0.699 ± 0.055
97 | RHLPPAPAPRFI | 0.717 ± 0.2
98 | RHPPPPPPALTP | 0.707 ± 0.054
99 | RHSLPSPPAFCL | 0.723 ± 0.0092
100 | RHTARQSTTWRG | 0.695 ± 0.071
101 | RIAAVRVEGRDD | 0.708 ± 0.026
102 | RIADSLTPAHPA | 0.699 ± 0.023
103 | RIEIVDVQFLWE | 0.7 ± 0.048
104 | RIEKNTKRSEIW | 0.665 ± 0.021
105 | RIHAVINLLMND | 0.651 ± 0.039
106 | RIKAKKNKTMKR | 0.655 ± 0.021
107 | RIKRTMNEKIRK | 0.68 ± 0.0041
108 | RIPSKSHAWVLV | 0.483 ± 0.058
109 | RITTNQMNIKFI | 0.653 ± 0.02
110 | RIWKKKRYNEKS | 0.681 ± 0.12
111 | RKASQEQYHQRH | 0.648 ± 0.05
112 | RKCHCPGGGRRI | 0.7171 ± 0.00079
113 | RKDEKRGTVIIA | 0.62 ± 0.021
114 | RKGHKSNRSKNE | 0.705 ± 0.03
115 | RKINKQKRTKEE | 0.6449 ± 0.0023

Row | Sequence | protein stability index
116 | RKKEKKQKKKKG | 0.688 ± 0.043
117 | RKKIRKNITQQP | 0.692 ± 0.052
118 | RKKKKKNKNEKE | 0.713 ± 0.04
119 | RKKKNRKERQKK | 0.6725 ± 0.00086
120 | RKKPRKLRETDN | 0.649 ± 0.053
121 | RKLNEKTRYKRR | 0.7788 ± 0.003
122 | RKMYRIKKEIKI | 0.641 ± 0.098
123 | RKNTSRESGLTR | 0.632 ± 0.026
124 | RKSDGMKSCLMG | 0.684 ± 0.016
125 | RKYEKEKYKKMI | 0.566 ± 0.013
126 | RLAPWATGVRMW | 0.6759 ± 0.0016
127 | RLDAGASAAFKG | 0.7184 ± 0.00093
128 | RLGCGFGGGEEV | 0.674 ± 0.032
129 | RLGDALCFSFTV | 0.644 ± 0.032
130 | RLGGGGCVWVRG | 0.683 ± 0.027
131 | RLGIADHEYPCE | 0.673 ± 0.011
132 | RLGVWVWGFTPG | 0.742 ± 0.082
133 | RLGWTTSEELWC | 0.657 ± 0.029
134 | RLLSPPPPPPPV | 0.701 ± 0.071
135 | RLLSSPLHPPLP | 0.701 ± 0.018
136 | RLPLAPFSVTTH | 0.699 ± 0.1
137 | RLPLASPPHSSP | 0.675 ± 0.056
138 | RLPLPPSRLVKH | 0.671 ± 0.026

Row | Sequence | protein stability index
139 | RLPPGRPPPPPP | 0.602 ± 0.08
140 | RLPPPSPSLPPL | 0.722 ± 0.063
141 | RLPQSRLRTPPP | 0.705 ± 0.069
142 | RLRTVQNLQIVV | 0.658 ± 0.028
143 | RLSARRSVGGSA | 0.7097 ± 0.0051
144 | RLSCFLVWFPFW | 0.5924 ± 0.0021
145 | RLSFAWGGLLVV | 0.523 ± 0.0057
146 | RLSGDRCSHDAG | 0.6768 ± 0.0037
147 | RLSRCFDSHLGG | 0.696 ± 0.038
148 | RLSVWTFCSMVW | 0.555 ± 0.0085
149 | RLTPFPPRPLPL | 0.767 ± 0.2
150 | RLVCLVTQSVPH | 0.613 ± 0.021
151 | RLVNSVAVSFLR | 0.697 ± 0.1
152 | RLVSPPPLPHRP | 0.688 ± 0.0062
153 | RMCLDYSFDSLL | 0.673 ± 0.0082
154 | RMIPYDLIRLTR | 0.705 ± 0.012
155 | RMKGTNKEGKKK | 0.693 ± 0.054
156 | RMLHYCTYSLLL | 0.71 ± 0.079
157 | RNAEVWDNLFEG | 0.6969 ± 0.0061
158 | RNAGYPALDELS | 0.6861 ± 0.0047
159 | RNIRINKKVKDI | 0.594 ± 0.032
160 | RNKINKKKLKKG | 0.7403 ± 0.0062
